Paper PMC12103069

Molecular target: GST-MuRF1 (MuRF1 full length, TRIM63) (Rattus norvegicus)
Assay: other fluorescence titration; change in the initial fluorescence of dye-labelled GST-MuRF (10 nM, constant) with a 16-sample serial dilution of the E2; MonolithX (NanoTemper), premium capillaries, 100% MST power, 25 °C; 50 mM HEPES pH 7.4, 150 mM NaCl, 0.005% Tween20, 0.1% dextran

Chain of GST-MuRF1 (MuRF1 full length, TRIM63) (Rattus norvegicus) (Q91Z63 whole entry): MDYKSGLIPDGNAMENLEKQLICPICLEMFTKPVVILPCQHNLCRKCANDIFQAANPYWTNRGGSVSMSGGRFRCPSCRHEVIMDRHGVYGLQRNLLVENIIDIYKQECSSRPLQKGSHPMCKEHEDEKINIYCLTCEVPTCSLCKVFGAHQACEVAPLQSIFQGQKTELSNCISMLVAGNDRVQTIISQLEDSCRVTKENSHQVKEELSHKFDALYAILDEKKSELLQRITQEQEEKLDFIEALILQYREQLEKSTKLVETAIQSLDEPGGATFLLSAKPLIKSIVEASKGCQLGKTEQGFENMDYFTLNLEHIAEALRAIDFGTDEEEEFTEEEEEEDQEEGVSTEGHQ

Question: With “UBE2J2 cytosolic part K26A (from UniProt Q6P073 1-259) (domain or fragment)” as the substance, how does the Kd read?
Answer: 26 µM

Question: How did the Kd turn out when “UBE2J2 cytosolic part N6A,R8A (from UniProt Q6P073 1-259) (domain or fragment)” was run?
Answer: 8.9 µM

Question: How did the Kd turn out when “UBE2J2 cytosolic part P10A,T11A (from UniProt Q6P073 1-259) (domain or fragment)” was run?
Answer: 10.3 µM
